Test results published in patent US20190309074A1, “DEGLYCOSYLATED ANTIBODY SPECIFICALLY BINDING TO CLEC14A AND USES THEREOF” (WOORI TECHNOLOGIES CORPORATION, priority 2016, published 2019).

Tests used:
[1] = system: GFP-transfected HUVECs; assay: IncuCyte real-time VEGF-dependent angiogenesis assay; assay type: cell-based, human
Procedure: In order to identify inhibitory activity of optimized candidate antibodies against angiogenesis dependent upon VEGF, which is a key factor of angiogenesis, anti-angiogenesis activity was comparatively analyzed using an IncuCyte FLR live content imaging system (Essen Bioscience Inc.) providing real-time analysis of angiogenesis. First, GFP-transfected HUVECs were seeded on a […] plate, were treated with 36 types of antibodies at a concentration of 20 ug/ml and in vitro efficacy was then compared. At this time, optimized antibodies were comparatively analyzed in terms of efficacy with parental IgG (parent antibody: clone 1 of WO 2013/187556), deglyco C1 and bevacizumab (Avastin) as positive control groups.

[2] = aggregation and purification amounts of deglycosylated antibodies, before and after φ; assay type: physicochemical; settings: based on 100 ml culture

Molecule	anti-angiogenesis activity (tube length and branch point) ([1]; 20 ug/ml)	changes in tube length (progression of angiogenesis) ([1]; representative images)	Final um, After φ [2]	Final um, Before φ [2]	Fraction1, After φ [2]	Fraction1, Before φ [2]	Fraction2, After φ [2]	Fraction2, Before φ [2]	Fraction3, After φ [2]	Fraction3, Before φ [2]	Fraction4, After φ [2]	Fraction4, Before φ [2]
Opti 3: IgG, heavy chain CDR3 GATWWVLGAFDY (SEQ ID No: 27), VL of Deg C1 (antibody, V domains shown) VH: EVQLVESGGGLVQPGGSLRLSCAVSGFTFSGYDMSWIRQAPGKGLEWVAGIYPDGGNTYYADSVKGRFTISRDDSKNTFYLQMNSLRAEDTAVYYCARGATWWVLGAFDYWGQGTLVTVSS VL: DIQLTQSPSSLSASVGDRVTITCTGSSSNIGRCGVTWYQQKPGKAPKLLIYADSHRPSGVPSRFSGSGSGTDFTLTISSLQPEDFATYYCGAWDDSLSGYVFGQGTKVEIKR	potent efficacy	same efficacy as Suramin and Avastin	–	–	–	–	–	–	–	–	–	–
Deglyco-C2: deglycosylated clone 1 IgG; light chain CDR1 TGSSSNIGATAVT (SEQ ID NO: 3) (antibody, V domains shown) VH: EVQLVESGGGLVQPGGSLRLSCAVSGFTFSGYDMSWIRQAPGKGLEWVAGIYPDGGNTYYADSVKGRFTISRDDSKNTFYLQMNSLRAEDTAVYYCARGATWWVLGPFDYWGQGTLVTVSS VL: DIQLTQSPSSLSASVGDRVTITCTGSSSNIGATAVTWYQQKPGKAPKLLIYADSHRPSGVPSRFSGSGSGTDFTLTISSLQPEDFATYYCGAWDDSLSGYVFGQGTKVEIKR	–	–	5.018 mg	5.032 mg	0.018 mg	0.019 mg	3.702 mg	3.718 mg	1.110 mg	1.113 mg	0.198 mg	0.201 mg
Deglyco-C3: deglycosylated clone 1 IgG; light chain CDR1 TGSSSNIGWSNVT (SEQ ID NO: 4) (antibody, V domains shown) VH: EVQLVESGGGLVQPGGSLRLSCAVSGFTFSGYDMSWIRQAPGKGLEWVAGIYPDGGNTYYADSVKGRFTISRDDSKNTFYLQMNSLRAEDTAVYYCARGATWWVLGPFDYWGQGTLVTVSS VL: DIQLTQSPSSLSASVGDRVTITCTGSSSNIGWSNVTWYQQKPGKAPKLLIYADSHRPSGVPSRFSGSGSGTDFTLTISSLQPEDFATYYCGAWDDSLSGYVFGQGTKVEIKR	–	–	2.768 mg	2.918 mg	0.012 mg	0.014 mg	2.109 mg	2.209 mg	0.520 mg	0.580 mg	0.127 mg	0.129 mg
Deglyco-C4: deglycosylated clone 1 IgG; light chain CDR1 TGSSSNIGAVVVT (SEQ ID NO: 5) (antibody, V domains shown) VH: EVQLVESGGGLVQPGGSLRLSCAVSGFTFSGYDMSWIRQAPGKGLEWVAGIYPDGGNTYYADSVKGRFTISRDDSKNTFYLQMNSLRAEDTAVYYCARGATWWVLGPFDYWGQGTLVTVSS VL: DIQLTQSPSSLSASVGDRVTITCTGSSSNIGAVVVTWYQQKPGKAPKLLIYADSHRPSGVPSRFSGSGSGTDFTLTISSLQPEDFATYYCGAWDDSLSGYVFGQGTKVEIKR	–	–	1.442 mg	1.390 mg	0.015 mg	0.019 mg	1.126 mg	1.135 mg	0.251 mg	0.255 mg	0.050 mg	0.057 mg
